Experimental data taken from US20230416726A1 (University of Washington, published 2023).

Biological target: T1, programmed cell death ligand 1 (PD-L1) (UniProt Q9NZQ7 19-239, limits assumed, biotinylated in the yeast display assays)
T1 construct: also called PD-Li
Experiment: BLI, max binding signal versus PD-L1 concentration

T1 sequence (Q9NZQ7 19-239 limits assumed): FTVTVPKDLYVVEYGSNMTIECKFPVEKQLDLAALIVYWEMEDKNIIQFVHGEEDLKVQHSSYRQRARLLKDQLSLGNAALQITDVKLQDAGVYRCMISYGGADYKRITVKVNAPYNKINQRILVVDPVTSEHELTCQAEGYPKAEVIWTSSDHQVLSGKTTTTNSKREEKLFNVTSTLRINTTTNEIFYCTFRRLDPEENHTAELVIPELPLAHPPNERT

B1: pdl1_inp_1 (purified from E. coli) (designed binder)
chain: DLEEFFEECLKEAEEVRKEVLEGKARIQIKESVRKEDPEGGTYVCGVISLGPKGGKFHVVFHKEDPEGKEETLARFEFKVEGGKVELLELKSKDPELKKLAEKYAEKLLE
notes: Expressed as a monomer; Tested by BLI; not shown: C-terminal SNAC tag and 6xHis tag from the modified pET29b+ vector
Kd: 326 nM
